# From publication doi:10.1101/2023.06.20.545791 (bioRxiv, 2023)
# Ends that are not written are not given here.
# T1: IRE1α lumenal domain (IRE1αLD) (human, UniProt O75460 24-443)
# T1 sequence: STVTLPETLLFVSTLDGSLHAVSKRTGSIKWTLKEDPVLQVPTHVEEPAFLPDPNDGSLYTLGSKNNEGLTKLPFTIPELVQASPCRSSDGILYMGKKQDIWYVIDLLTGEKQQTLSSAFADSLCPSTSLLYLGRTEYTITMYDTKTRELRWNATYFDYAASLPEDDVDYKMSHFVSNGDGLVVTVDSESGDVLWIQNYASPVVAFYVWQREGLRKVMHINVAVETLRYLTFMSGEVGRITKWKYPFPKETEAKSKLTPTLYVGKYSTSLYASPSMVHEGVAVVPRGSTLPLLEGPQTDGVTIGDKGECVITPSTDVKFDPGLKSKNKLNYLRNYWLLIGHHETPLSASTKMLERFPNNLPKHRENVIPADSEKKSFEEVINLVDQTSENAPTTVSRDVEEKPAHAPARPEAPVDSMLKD
# Experiments:
# [1] = target: T1, IRE1α lumenal domain (IRE1αLD); experiment: […]
# [2] = target: T1, IRE1α lumenal domain (IRE1αLD); experiment: […]; remark: listed apart in the source
# [3] = target: T1, IRE1α lumenal domain (IRE1αLD); experiment: fluorescence polarisation
Binder,binding result [1],other results
IHFYSKWYIR [SARS-CoV2 ORF8 peptide 39-48],binds,
IYGWYRVHF [CTxA1_(I124-F132) peptide],binds,
IYGWYRVNF [heat-labile enterotoxin (LTx) peptide 124-132],binds,
IYGWYRVHFGVLDEQLHR [CTxA1_(I124-R141) peptide],,Kd [1]: 44 ± 5 µM
YWLLIGHHETPL (not fully specified (N-terminus)) [IRE1α_(Y358-L369) peptide],,Ki [2]: 220 ± 30 µM; Kd [3]: 190 ± 20 µM
